According to patent publication US20260072027A1, “Peptides And Method” (Queen Mary University of London, priority 2022, published 2026):
Where no end group is shown, it is not given here.

Assays:
[1] = biological target: Serum IgG autoantibodies of subjects with type 1 diabetes (human); assay: competitive ELISA, T1D serum pre-incubated with peptide, plate coated with oxidised insulin (FIG. 2B)
[2] = biological target: Serum IgG autoantibodies of subjects with type 1 diabetes (human); assay: competitive ELISA, T1D serum pre-incubated with peptide, plate coated with oxidised insulin (Example 3)

B1: oxPTM-INSP-6, peptide 6 oxidised in house (oxidant not specified at the place) (peptide)
peptide: ERGFFYTPKT
modifications: not fully specified (N-terminus); also: oxidised in house (CuCl2, H2O2, NaOCl), modified residues not defined
B1 was tested, and the % reduction of serum binding to oxidised whole insulin [1] was 35 to 75% and the % reduction of serum binding to oxidised whole insulin [2] was 35 to 70%.
